Measurements: patent publication US11254745 (CROWN BIOSCIENCE, dated 2022)

What was measured:
[1] = target: T1, human CD4 on 293T cells stably expressing CD4 (CD4-293T) (human, UniProt P01730 26-458); assay: FACS, chimeric antibody on CD4-293T cells
T1 construct: whole, on cells; also called 293T-CD4 cells; hCD4 (FACS)
Experimental: (§1) Cell binding analysis of anti-CD4 antibody was performed using 293T cell line stably expressing CD4 (CD4-293T). 2*10^5 CD4-293T cells were added to each well of 96-well plate and incubated with the indicated hybridoma supernatant or a serial concentrations of purified antibody (starting from 20 μg/mL) at 4° C. for 1 h. After the cells were washed three times with FACS buffer, the secondary antibody (PE Goat anti-mouse: 1:200) was added to the cells at 100 μl/well, and incubated at 4° C. for 40 min. Cells were washed three times with FACS buffer and analyzed by FACS Array. The binding EC50 of purified antibody was calculated with GraphPad Prism 5.
(§2) Freestyle 293 cells (200 mL at 1*10^6/mL) were transfected with 100 µg of each of the chimeric heavy and light chain expression plasmids and cultured for 6 days at 37° C. The chimeric antibody in the supernatant was then purified with Protein-A column (GE healthcare). Binding of the chimeric antibody with CD4 was measured by ELISA (FIG. 3, Table 5) and FACS (FIG. 4, Table 6), using the similar methods described above in Example 2.

[2] = target: T2, extracellular domain of hCD4 fused with human Fc tag (hCD4-hFc) (human, UniProt P01730 26-396); assay: ELISA, chimeric antibody on hCD4, method similar to Example 2
T2 construct: extracellular domain; also called human CD4-hFc; hCD4 (ELISA); not shown: human Fc tag
Experimental: (§3) Example 2: Selection of the Anti-hCD4 Hybridoma Antibodies Based on Binding and Gene Reporter Assays The binding interaction between hybridoma antibody and human CD4-hFc was measured by ELISA. 96-well plates (Costar, Cat. No:9018) were coated with 100 μL of 2 μg/ml CD4-hFc (CrownBio) in PBS buffer (Hyclone, Cat. No: SH30256.01B) overnight at 4° C. The wells were aspirated and non-specific binding sites were blocked by adding 200 μL of blocking buffer containing 1% (w/v) of bovine serum albumin (BSA, Roche, Cat. No: 738328) and incubating for 1 hour at 37° C. After the plates are washed three times with PBS buffer containing 0.05% (v/v) Tween™ 20 (Sigma, Cat. No: P1379), 100 μL hybridoma supernatant or a serial concentrations of purified antibody (starting from 20 μg/mL) diluted in blocking buffer was added to each well and incubated at room temperature for 1 hour. The plates were washed and incubated with 100 μL/well of Goat anti-Mouse IgG (Thermo, Cat. No:31432) in blocking buffer for 60 min. After the plates were washed, 100 μL/well of substrate solution TMB (eBioscience, Cat. No:00-4201-56) was added, and the plates were incubated for 2 min at room temperature before 100 μL/well of 2N H_2SO_4 was added to stop the reaction. The colorimetric signals were monitored at 450 nm using a SpectraMax Plus microplate reader (Molecular Devices). For the purified antibody, data were analyzed using GraphPad Prism 5 to calculated the $EC50$.
as §2

[3] = target: T3, extracellular domain of hCD4 fused with a histidine tag (hCD4-HisTag) (human, UniProt P01730 26-396); assay: Biacore T200 SPR, antibody captured on Protein A, CD4-HisTag analyte, 1:1 fit, 25 C
T3 construct: extracellular domain; also called human CD4-HisTag; not shown: histidine tag
Experimental: The binding kinetics between CD4 and CD4 antibodies were measured by Biacore™ analysis, which was performed at 25° C. on a Biacore™ T200 instrument. Protein A (GE, Cat. No:29139131-AA) was diluted with 10 mM pH 5.0 sodium acetate and immobilized onto reference and experiment flow cells of a CM5 biosensor chip to around 15000 RU using an amine coupling kit (GE, BR10050). In the beginning of each cycle, diluted test antibody (1.5 µg/mL) was injected over experiment flow cell for 1 minute to be captured. CD4-HisTag analyte series were prepared by diluting the stocks with running buffer to 100 nM followed by 2-fold serial dilution in the same buffer down to 0.78 nM. Analytes were injected in series over the reference and experiment flow cells for 3 minutes at a flow rate of 30
μL/minute. Running buffer (PBS with 0.05% P20) was allowed to flow over for 10 minutes at a flow rate of 30 μL/minute. At the end of each cycle, the biosensor surface was regenerated with 3-minute injection of 10 mM pH 2.0 Glycine-HCl buffer at a flow rate of 10 μL/minute. For each analyte sample injection (i.e., each cycle), binding responses obtained from the experimental biosensor surface were double referenced by subtracting simultaneously recorded responses from the reference surface followed by additional subtraction of responses from a single referenced running buffer sample. The association and dissociation rate constants (ka and kd) were determined simultaneously by fitting double-referenced sensorgrams of the entire titration series to Langmuir model (1:1) using Biaevaluation software. The dissociation constant, KD, was calculated from the determined rate constants by the equation KD=kd/ka.

[4] = target: T2, extracellular domain of hCD4 fused with …; assay: ELISA, purified hybridoma antibody on coated CD4-hFc
Experimental: as §3

[5] = target: T1, human CD4 on 293T cells stably …; assay: FACS on 293T cells expressing human CD4, MFI; table under the graph (unit from the graph's axis); Table 6 of the text gives this value to 11E12
Experimental: as §1, §2

[6] = target: T1, human CD4 on 293T cells stably …; assay: FACS on 293T cells expressing human CD4, MFI; table under the graph (unit from the graph's axis); Table 6 of the text gives this value to 29B7
Experimental: as §1, §2

[7] = target: T1, human CD4 on 293T cells stably …; assay: FACS on 293T cells expressing human CD4, MFI; table under the graph (unit from the graph's axis); Table 6 of the text gives this value to 10C2
Experimental: as §1, §2

[8] = target: T1, human CD4 on 293T cells stably …; assay: FACS on 293T cells expressing human CD4, MFI; table under the graph (unit from the graph's axis); Table 6 of the text gives this value to 2B6
Experimental: as §1, §2

EC50 [1] [µg/mL]	EC50 [2] [µg/mL]	Kd [3] [nM]	koff [3] [s⁻¹]	kon [3] [M⁻¹ s⁻¹]	EC50 [4] [µg/mL]	Binder	further results
0.515	0.0165	1.61	0.000941	586000	–	Chimeric MT412 anti-CD4 antibody (antibody, human IgG1, kappa, V domains shown) VH: QIQLVQSGPELKKPGETVKISCKASGYTFTDYSMHWVKQAPGKDLKWMGWINTETGEPTYADDFKGRFAFSLETSASTAYLQINNLKNEDTATYFCAREDYYGHDGFLYWGQGTLVTVSS VL: DIVMTQSHKFMSTSVGDRVSITCKASQDVVTTVAWYQQKPGQSPKLLIYWASLRHTGVPDRFTGSGSGTDFTLTISNVQFEDLADYFCQQYSSYPYTFGGGTKLEIKR	–
–	–	–	–	–	0.0334	29B7 murine hybridoma anti-CD4 antibody (antibody, V domains shown, also called hybridoma clone 29B7) VH: QVQLQQSGAELAKPGASVKMSCKTSADSLNTHWMHWVKQRPGQGLEWIGYINPYTGSGEYSQKFKGKATLTADISSSTAYMQLISLTSEDSAVYYCAYDSTGAMDYWGQGTSVTVSS VL: DIKMTQSPSSMYASLGERITITCKASQDINRYLSWFQQKPGKSPKTPIYRADRSVDGVPSRFSGSGSGQDYSLTISSLEYEDMGIYYCQQYDEFPYTFGGGTKLEIK	–
–	–	–	–	–	0.0368	10C2 murine hybridoma anti-CD4 antibody (antibody, V domains shown, also called hybridoma clone 10C2) VH: EVKLQQSGTELMKPGASVKISCKATGYTFSSYWIEWIKQRPGRGLEWIGEILPGSGSTNYNEEFTGRATFTADTFSNTAYMQLSSLTSEDSAVYYCARSVSASNWYFDVWGAGTTVTVSS VL: DIVMTQSPASLAVSLGQRATISCRASQSVSTSSYSYMHWYQQKPGQPPKFLIKYASNLESGVPARFSGSGSGTDFTLNIHPVEEEDTATYYCQHSWEIPPTFGGGTKLEIK	–
0.669	0.0165	0.373	0.000122	327000	–	Chimeric 2B6 anti-CD4 antibody (antibody, human IgG1, kappa, V domains shown) VH: EVQLQESGPSLVKPSQTLSLTCSVTGDSITSGYWNWIRKFPGHKLEFLGYISFADTTNYNPSLKSRVSITRDTSKNQFDLQLKSVTTEDTATYHCARDDYGYYAMDYWGQGISVTVSS VL: DIHLTQTTSSLSASLGDRVTIICRASQDIDNYLNWYQLKPDGTLKLLIYYTSRLHSGVPSRFSGSGSGTEYSLTISNLEREDVATYFCQQGNTLPTFGAGTKLELKR	EC50 [5]: 0.316 µg/mL
–	–	–	–	–	0.0261	2B6 murine hybridoma anti-CD4 antibody (antibody, V domains shown, also called hybridoma clone 2B6) VH: EVQLQESGPSLVKPSQTLSLTCSVTGDSITSGYWNWIRKFPGHKLEFLGYISFADTTNYNPSLKSRVSITRDTSKNQFDLQLKSVTTEDTATYHCARDDYGYYAMDYWGQGISVTVSS VL: DIHLTQTTSSLSASLGDRVTIICRASQDIDNYLNWYQLKPDGTLKLLIYYTSRLHSGVPSRFSGSGSGTEYSLTISNLEREDVATYFCQQGNTLPTFGAGTKLELK	–
0.316	0.0168	6.26	0.00618	987000	–	Chimeric 11E12 anti-CD4 antibody (antibody, human IgG1, kappa, V domains shown) VH: EVQLEESGPSLVKPSQTLSLTCSVTGDSITSSYWNWIRKFPGHKLEFLGYISFADTTNYNPSLKSRISITRDTSKNQFDLQLKSVTTEDTATYYCARDDFGYYAMDYWGQGISVTVSS VL: DIYVTQTTSSLSASLGDRVTIICRASQDINNYLNWYQLKPDGTLKLLIYYTSRLHSGVPSRFGGSGSGTEYSLTISNLEQEDVATYFCQQGNTLPTFGAGTKLELKR	EC50 [6]: 0.401 µg/mL
–	–	–	–	–	0.027	11E12 murine hybridoma anti-CD4 antibody (antibody, V domains shown, also called hybridoma clone 11E12) VH: EVQLEESGPSLVKPSQTLSLTCSVTGDSITSSYWNWIRKFPGHKLEFLGYISFADTTNYNPSLKSRISITRDTSKNQFDLQLKSVTTEDTATYYCARDDFGYYAMDYWGQGISVTVSS VL: DIYVTQTTSSLSASLGDRVTIICRASQDINNYLNWYQLKPDGTLKLLIYYTSRLHSGVPSRFGGSGSGTEYSLTISNLEQEDVATYFCQQGNTLPTFGAGTKLELK	–
0.351	0.0204	4.25	0.00461	1.09e+06	–	Chimeric 33E12 anti-CD4 antibody (antibody, human IgG1, kappa, V domains shown) VH: DVQLQESGPGLVKPSQSLSLTCTVTGYSITSDYAWNWIRQFPGNKLEWMGYISYSGITSYNPSLKSRFSITRDTSKNQFFLQLNSVTTEDTATYYCARLDSSGYGAMDYWGQGTSVTVSS VL: DIVLTQSPASLPVSLGQRATISCRASQSVSTSSYSYMHWYQQKPGQPPKLLIRYASNLESGVPARFSGSGSGTDFTLNIHPVEEEDTATYYCQHSWDFPLTFGAGTKLELKR	EC50 [7]: 0.882 µg/mL
–	–	–	–	–	0.034	33E12 murine hybridoma anti-CD4 antibody (antibody, V domains shown, Mouse antibody purified from hybridoma supernatant on Protein A and detected with goat anti-mouse IgG; also called hybridoma clone 33E12) VH: DVQLQESGPGLVKPSQSLSLTCTVTGYSITSDYAWNWIRQFPGNKLEWMGYISYSGITSYNPSLKSRFSITRDTSKNQFFLQLNSVTTEDTATYYCARLDSSGYGAMDYWGQGTSVTVSS VL: DIVLTQSPASLPVSLGQRATISCRASQSVSTSSYSYMHWYQQKPGQPPKLLIRYASNLESGVPARFSGSGSGTDFTLNIHPVEEEDTATYYCQHSWDFPLTFGAGTKLELK	–
0.882	0.0179	1.19	0.00019	160000	–	Chimeric 10C2 anti-CD4 antibody (antibody, human IgG1, kappa, V domains shown) VH: EVKLQQSGTELMKPGASVKISCKATGYTFSSYWIEWIKQRPGRGLEWIGEILPGSGSTNYNEEFTGRATFTADTFSNTAYMQLSSLTSEDSAVYYCARSVSASNWYFDVWGAGTTVTVSS VL: DIVMTQSPASLAVSLGQRATISCRASQSVSTSSYSYMHWYQQKPGQPPKFLIKYASNLESGVPARFSGSGSGTDFTLNIHPVEEEDTATYYCQHSWEIPPTFGGGTKLEIKR	EC50 [8]: 0.669 µg/mL
